Assay results reported in patent publication US20230391826A1 (SANFORD BURNHAM PREBYS MEDICAL DISCOVERY INSTITUTE, published 2023).
Like-named read-outs stand apart in the source and are kept apart here. Where no end group is shown, it is not given here. [ ]: non-standard residue; d: D form. The star is where a group is joined. Biotin = O=C1N[C@H]2[C@H](CS[C@H]2CCCCC(=O)*)N1; βAla = NCCC(=O)O; Cam = NC(=O)C*

Assays:
[1] = target: T1, EphA2 extracellular domain fused to the Fc portion of an antibody (EphA2-Fc); test: ELISA, inhibition of ephrinA5-AP binding to immobilized EphA2-Fc; representative experiment, triplicates
T1 construct: extracellular domain; Immobilized on the ELISA wells; also called immobilized EphA2
T1 sequence (P29317 whole entry, the tested form may be a part): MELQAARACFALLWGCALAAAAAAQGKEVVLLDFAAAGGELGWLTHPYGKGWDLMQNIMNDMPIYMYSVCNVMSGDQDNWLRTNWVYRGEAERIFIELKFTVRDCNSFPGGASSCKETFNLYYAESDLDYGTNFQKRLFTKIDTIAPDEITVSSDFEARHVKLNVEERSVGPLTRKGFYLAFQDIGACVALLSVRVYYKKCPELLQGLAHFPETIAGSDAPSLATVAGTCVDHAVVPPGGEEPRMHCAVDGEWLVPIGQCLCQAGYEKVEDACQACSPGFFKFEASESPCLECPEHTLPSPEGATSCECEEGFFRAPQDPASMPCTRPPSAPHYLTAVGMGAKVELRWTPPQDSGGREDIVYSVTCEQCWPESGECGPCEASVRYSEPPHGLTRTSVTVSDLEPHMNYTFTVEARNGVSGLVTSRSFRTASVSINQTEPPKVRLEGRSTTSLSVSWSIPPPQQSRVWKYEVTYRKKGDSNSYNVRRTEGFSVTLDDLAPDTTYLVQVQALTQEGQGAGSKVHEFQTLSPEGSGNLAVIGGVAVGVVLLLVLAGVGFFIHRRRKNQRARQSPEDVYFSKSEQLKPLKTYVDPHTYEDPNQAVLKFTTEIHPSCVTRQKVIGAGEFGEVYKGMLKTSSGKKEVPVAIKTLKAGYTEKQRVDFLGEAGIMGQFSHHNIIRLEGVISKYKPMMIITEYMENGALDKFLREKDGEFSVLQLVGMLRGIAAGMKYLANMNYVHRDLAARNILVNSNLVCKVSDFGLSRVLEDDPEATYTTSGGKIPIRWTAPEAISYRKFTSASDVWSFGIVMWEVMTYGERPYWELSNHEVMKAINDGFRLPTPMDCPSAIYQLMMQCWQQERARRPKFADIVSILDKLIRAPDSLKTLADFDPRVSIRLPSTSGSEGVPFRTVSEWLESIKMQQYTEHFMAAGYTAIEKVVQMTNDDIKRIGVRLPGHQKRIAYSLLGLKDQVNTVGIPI
Method: FIG. 1A-1C illustrates an example of Potency and selectivity of EphA2-targeting dimeric peptides. […] The graphs show averages ±SD from triplicate measurements from a representative experiment. […] The 10 nM peptide concentration is outlined in red. […] Values are normalized to ephrin binding without peptide. The graphs show averages and SDs from triplicate measurements (with each measurement shown as a dot).

[2] = target: T2, EphA2 endogenously expressed on PC3 prostate cancer cells (UniProt P29317 24-976, limits assumed); test: cell-based or functional assay
[3] = target: T3, EphA2 ligand binding domain (EphA2 LBD), residues 28-200 (UniProt P29317 28-200); test: ITC, soluble EphA2 LBD and peptide
T3 construct: range 28-200; Expressed in E. coli; also called soluble EphA2 LBD; soluble monomeric EphA2 LBD
T3 sequence (P29317 other isoform, or with tags, fused parts or gaps limits assumed, form in doubt): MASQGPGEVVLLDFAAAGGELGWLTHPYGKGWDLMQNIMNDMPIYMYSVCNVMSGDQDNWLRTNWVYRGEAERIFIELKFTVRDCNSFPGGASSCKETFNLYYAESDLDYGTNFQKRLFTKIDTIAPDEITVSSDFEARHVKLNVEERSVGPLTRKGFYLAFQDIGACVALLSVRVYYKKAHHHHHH
Method: (§1) For ITC, all peptides are dissolved in DMSO and both the EphA2 LBD and the peptides are diluted to obtain a final buffer containing 9.5 mM HEPES, pH 7.9, 95 mM NaCl, and 5% DMSO. The experiments are carried out at 296 K (23° C.) using an ITC200 calorimeter (Microcal). Two-microliter aliquots of a peptide solution are injected into the cell containing 205 μL EphA2 LBD. 200-400 μM peptides are titrated into 20-40 μM EphA2 LBD. Experimental data are analyzed using the Origin software package (Microcal). The integrated values for the reaction heats are normalized to the amount of injected peptide after blank subtraction.

[4] = target: T3, EphA2 ligand binding domain (EphA2 …); test: ITC, soluble EphA2 LBD and peptide; remark: listed apart in the source
Method: as §1

[5] = target: T2, EphA2 endogenously expressed on PC3 …; test: cell-based or functional assay; remark: listed apart in the source
[6] = target: T1, EphA2 extracellular domain fused to the …; test: ELISA, inhibition of ephrinA5-AP binding to immobilized EphA2-Fc
[7] = target: T3, EphA2 ligand binding domain (EphA2 …); test: ITC, EphA2 LBD (200-250 µM) titrated into 10-12.5 µM peptide; single titration shown
[8] = target: T3, EphA2 ligand binding domain (EphA2 …); test: ITC, soluble EphA2 LBD and peptide; remark: listed apart in the source
[9] = target: T1, EphA2 extracellular domain fused to the …; test: ELISA, inhibition of ephrinA5-AP binding to immobilized EphA2-Fc; representative experiment, triplicates; remark: listed apart in the source
[10] = target: T1, EphA2 extracellular domain fused to the …; test: ELISA, inhibition of ephrinA5-AP binding to immobilized EphA2-Fc; remark: listed apart in the source
[11] = target: T3, EphA2 ligand binding domain (EphA2 …); test: ITC, EphA2 LBD (200-250 µM) titrated into 10-12.5 µM peptide; single titration shown; remark: listed apart in the source
[12] = target: T2, EphA2 endogenously expressed on PC3 …; test: cell-based or functional assay; remark: listed apart in the source
[13] = target: T3, EphA2 ligand binding domain (EphA2 …); test: ITC, EphA2 LBD (200-250 µM) titrated into 10-12.5 µM peptide; single titration shown; remark: listed apart in the source

Row | Binder | Etop pAKT inhib [2] | Etop pY588 [2] | βlig (bias factor) [2] | -TΔS [3] [kcal/mol] | N (binding stoichiometry) [3] | ΔH [3] [kcal/mol] | N (binding stoichiometry) [4] | EC50 pAKT inhib [2] [nM] | EC50 pY588 [2] [nM] | Blig (bias factor) [5] | EC50 PY588 [5] [nM] | Emax PY588 [5] | IC50 PAKT [5] [nM] | IC50 [6] [nM] | Kd [8] [nM] | N (binding stoichiometry) [8] | Kd [3] [nM] | ΔG [3] [kcal/mol] | IC50 [9] [nM] | Kd [4] [nM] | further results
1 | C(Cam)GAWLAYPDSVPYRPK(Biotin) (also called monomer (10); monomeric peptide (10)) [CcamGA-WLA-YRPK-bio] | 1.06 | 0.48 normalized to ephrinA1-Fc | 0.64 | 25.5 | 0.8 | -35.1 | 0.8 |  |  |  |  |  |  |  |  |  |  |  |  |  | IC50 [1]: 22 nM
2 | [βAla]WLAYPDSVPYRPKGGAWLAYPDSVPYRPK-NH2 (N-terminus assumed; SMILES CC(C)C[C@H](NC(=O)[C@H](Cc1c[nH]c2ccccc12)NC(=O)CCN)C(=O)N[C@@H](C)C(=O)N[C@@H](Cc1ccc(O)cc1)C(=O)N1CCC[C@H]1C(=O)N[C@@H](CC(=O)O)C(=O)N[C@@H](CO)C(=O)N[C@H](C(=O)N1CCC[C@H]1C(=O)N[C@@H](Cc1ccc(O)cc1)C(=O)N[C@@H](CCCNC(=N)N)C(=O)N1CCC[C@H]1C(=O)N[C@@H](CCCCN)C(=O)NCC(=O)NCC(=O)N[C@@H](C)C(=O)N[C@@H](Cc1c[nH]c2ccccc12)C(=O)N[C@@H](CC(C)C)C(=O)N[C@@H](C)C(=O)N[C@@H](Cc1ccc(O)cc1)C(=O)N1CCC[C@H]1C(=O)N[C@@H](CC(=O)O)C(=O)N[C@@H](CO)C(=O)N[C@H](C(=O)N1CCC[C@H]1C(=O)N[C@@H](Cc1ccc(O)cc1)C(=O)N[C@@H](CCCNC(=N)N)C(=O)N1CCC[C@H]1C(=O)N[C@@H](CCCCN)C(N)=O)C(C)C)C(C)C) [linear dimer (head-to-tail)] | 0.87 | 0.76 normalized to ephrinA1-Fc | 0.62 |  |  |  |  | 0.09 | 0.73 | 0.62 | 0.49 | 0.61 normalized to ephrinA1-Fc | 0.12 |  |  |  |  |  |  |  | 
3 | YSAYPDSVPMMSGSGSK(Biotin) (Previously identified monomer, included for comparison; also called monomer (2*); 2*) [YSA-GSGSK-bio] |  |  |  |  |  |  |  |  |  |  |  |  |  | 850 |  |  |  |  |  |  | 
4 | [βAla]WLAYPDSVPYRPKC (also: homodimer, disulfide at 15, other end not in the chain, C-terminally disulfide-linked homodimer made from monomer (19*); also called dimer (2); dimeric peptide (2)) [βA-WLA-YRPKC dimer (C-ter)] | 0.86 | 0.5 normalized to ephrinA1-Fc | 0.73 | 19.5 | 2 | -28.2 | 2 | 0.82 | 5.6 | 1.28 | 2.6 | 0.39 normalized to ephrinA1-Fc | 0.22 | 0.5 | 380 | 2 | 380 | -8.71 | 0.47 | 380 | Kd [7]: 329 nM; IC50 [10]: 0.5 nM
5 | Click dimer (N-ter) (not fully specified; propargylglycine (Pra) at position 1, joined by a click linkage to KN3 of the other chain; C-terminal amide; azido-lysine (KN3) at position 1, joined by a click linkage to Pra of the other chain; C-terminal amide) peptide 1: KAWLAYPDSVPYRPK peptide 2: XGAWLAYPDSVPYRPK | 0.87 | 0.98 normalized to ephrinA1-Fc | 0.5 |  |  |  |  | 0.08 | 0.64 | 0.93 | 0.22 | 0.71 normalized to ephrinA1-Fc | 0.024 |  |  |  |  |  |  |  | 
6 | Lys-linked dimer (C-ter) (also: bond at chain A 15 to a chain's C-terminus) peptide 1: [βAla]WLAYPDSVPYRPKK peptide 2: [βAla]WLAYPDSVPYRPK | 1 | 0.46 normalized to ephrinA1-Fc | 0.79 |  |  |  |  | 0.42 | 2.6 | 0.79 | 2.4 | 0.37 normalized to ephrinA1-Fc | 0.63 |  |  |  |  |  |  |  | 
7 | [βAla]WLAYPDSVPYGSGC (also: homodimer, disulfide at 15, other end not in the chain, C-terminally disulfide-linked homodimer made from monomer (9*); also called dimer (1); dimeric peptide (1)) [βA-WLA-YGSGC dimer (C-ter)] | 0.9 | 0.49 normalized to ephrinA1-Fc | 0.506 | 16.3 | 1.7 | -23.9 | 1.7 | 39 |  |  |  |  |  | 71 | 2900 | 1.7 | 2900 | -7.55 | 67 | 2900 | Kd [11]: 3760 nM; agonistic potency (pY588), fold lower than the other dimers with similar configuration [12]: 10 to 60 fold; IC50 [10]: 71 nM
8 | CGAWLAYPDSVPYR (also: homodimer: N-terminal Cys of two chains joined by disulfide, N-terminally disulfide-linked homodimer made from monomer (15*); also called dimer (4)) [CGA-WLA-YR dimer (N-ter)] | 0.9 | 0.94 normalized to ephrinA1-Fc | 0.47 | 23.6 | 2 | -33.1 | 2 | 0.53 |  |  |  |  |  | 7.9 | 104 | 2 | 104 | -9.47 | 6.7 | 104 | agonistic potency (pY588), fold lower than the other dimers with similar configuration [12]: 10 to 60 fold; IC50 [10]: 7.9 nM; Kd [13]: 103 nM
9 | CGAWLAYPDSVPYRPK-NH2 (also: homodimer: N-terminal Cys of two chains joined by disulfide) [CGA-WLA-YRPKam dimer (N-ter)] | 0.97 | 0.98 normalized to ephrinA1-Fc | 0.51 |  |  |  |  | 0.08 | 0.36 | 0.36 | 0.12 | 0.8 normalized to ephrinA1-Fc | 0.043 |  |  |  |  |  |  |  | 
